Columns and labels:
c-Src = experiment: phosphorylation enrichment, bacterial display (enrichment ratio); higher = better substrate or ligand; peptides without Tyr show the background
FGFR1 = FGFR1 (UniProt P11362); experiment: as above
Fes = Fes (UniProt P07332); experiment: as above
EPHB2 = EPHB2 (UniProt P29323); experiment: as above
Fer (mouse) = experiment: as above
Hck = Hck (UniProt P08631); experiment: as above
c-Abl (mouse) = experiment: as above
Fyn = Fyn (UniProt P06241); experiment: as above
EPHB1 = EPHB1 (UniProt P54762); experiment: as above
FGFR3 = FGFR3 (UniProt P22607); experiment: as above
Jak2 = Jak2 (UniProt O60674); experiment: as above
AncSZ = experiment: as above
MERTK = MERTK (UniProt Q12866); experiment: as above
c-Src SH2 = experiment: SH2 binding enrichment of the phosphorylated peptide, bacterial display (enrichment ratio); higher = better substrate or ligand; peptides without Tyr show the background
SHP2-C SH2 = experiment: as above
Grb2 SH2 = Grb2 SH2 (UniProt P62993); experiment: as above
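Throughout, for SH2 binding enrichment of the phosphorylated peptide, bacterial display: peptide library displayed on the E. coli surface as eCPX fusions, selected cells deep-sequenced, score is each peptide's frequency after selection divided by its frequency in the input.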
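Throughout, for phosphorylation enrichment, bacterial display: 11-residue human phosphosite peptides and single-mutation variants displayed on the E. coli surface, counted by deep sequencing, each peptide's frequency after selection divided by its frequency in the unselected input library; frequency after pTyr selection over input frequency; kinase dosed for 20-30% of maximal phosphorylation in three min.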

Sequence of Fyn (P06241 whole entry, looked up): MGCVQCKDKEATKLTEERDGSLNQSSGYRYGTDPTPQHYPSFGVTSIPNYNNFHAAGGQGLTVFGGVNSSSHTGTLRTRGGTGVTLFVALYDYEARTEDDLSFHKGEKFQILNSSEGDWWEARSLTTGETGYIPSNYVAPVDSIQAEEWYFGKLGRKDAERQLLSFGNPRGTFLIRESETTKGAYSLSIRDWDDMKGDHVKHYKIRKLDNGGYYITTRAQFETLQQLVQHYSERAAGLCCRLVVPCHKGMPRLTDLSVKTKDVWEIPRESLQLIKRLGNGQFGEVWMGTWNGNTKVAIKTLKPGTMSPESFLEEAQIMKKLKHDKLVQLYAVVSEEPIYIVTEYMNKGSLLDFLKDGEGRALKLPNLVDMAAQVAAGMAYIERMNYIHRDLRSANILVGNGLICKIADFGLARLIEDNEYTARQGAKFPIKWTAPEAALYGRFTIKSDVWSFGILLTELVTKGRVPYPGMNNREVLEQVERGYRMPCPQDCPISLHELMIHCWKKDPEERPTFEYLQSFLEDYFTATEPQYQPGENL
Sequence of Hck (P08631 whole entry, looked up): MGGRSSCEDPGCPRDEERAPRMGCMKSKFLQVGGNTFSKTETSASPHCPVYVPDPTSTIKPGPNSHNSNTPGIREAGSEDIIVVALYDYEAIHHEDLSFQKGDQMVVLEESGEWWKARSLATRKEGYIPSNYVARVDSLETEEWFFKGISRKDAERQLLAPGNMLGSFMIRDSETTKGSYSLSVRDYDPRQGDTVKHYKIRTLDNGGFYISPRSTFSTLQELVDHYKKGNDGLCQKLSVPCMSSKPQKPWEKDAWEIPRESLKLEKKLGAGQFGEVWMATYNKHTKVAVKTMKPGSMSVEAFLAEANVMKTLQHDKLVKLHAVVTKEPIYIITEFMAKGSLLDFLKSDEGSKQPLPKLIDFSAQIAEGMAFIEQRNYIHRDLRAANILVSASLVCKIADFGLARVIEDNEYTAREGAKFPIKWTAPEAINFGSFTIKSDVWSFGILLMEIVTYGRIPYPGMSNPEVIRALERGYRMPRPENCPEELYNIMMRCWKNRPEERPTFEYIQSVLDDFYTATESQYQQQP
Sequence of Jak2 (O60674 whole entry, looked up): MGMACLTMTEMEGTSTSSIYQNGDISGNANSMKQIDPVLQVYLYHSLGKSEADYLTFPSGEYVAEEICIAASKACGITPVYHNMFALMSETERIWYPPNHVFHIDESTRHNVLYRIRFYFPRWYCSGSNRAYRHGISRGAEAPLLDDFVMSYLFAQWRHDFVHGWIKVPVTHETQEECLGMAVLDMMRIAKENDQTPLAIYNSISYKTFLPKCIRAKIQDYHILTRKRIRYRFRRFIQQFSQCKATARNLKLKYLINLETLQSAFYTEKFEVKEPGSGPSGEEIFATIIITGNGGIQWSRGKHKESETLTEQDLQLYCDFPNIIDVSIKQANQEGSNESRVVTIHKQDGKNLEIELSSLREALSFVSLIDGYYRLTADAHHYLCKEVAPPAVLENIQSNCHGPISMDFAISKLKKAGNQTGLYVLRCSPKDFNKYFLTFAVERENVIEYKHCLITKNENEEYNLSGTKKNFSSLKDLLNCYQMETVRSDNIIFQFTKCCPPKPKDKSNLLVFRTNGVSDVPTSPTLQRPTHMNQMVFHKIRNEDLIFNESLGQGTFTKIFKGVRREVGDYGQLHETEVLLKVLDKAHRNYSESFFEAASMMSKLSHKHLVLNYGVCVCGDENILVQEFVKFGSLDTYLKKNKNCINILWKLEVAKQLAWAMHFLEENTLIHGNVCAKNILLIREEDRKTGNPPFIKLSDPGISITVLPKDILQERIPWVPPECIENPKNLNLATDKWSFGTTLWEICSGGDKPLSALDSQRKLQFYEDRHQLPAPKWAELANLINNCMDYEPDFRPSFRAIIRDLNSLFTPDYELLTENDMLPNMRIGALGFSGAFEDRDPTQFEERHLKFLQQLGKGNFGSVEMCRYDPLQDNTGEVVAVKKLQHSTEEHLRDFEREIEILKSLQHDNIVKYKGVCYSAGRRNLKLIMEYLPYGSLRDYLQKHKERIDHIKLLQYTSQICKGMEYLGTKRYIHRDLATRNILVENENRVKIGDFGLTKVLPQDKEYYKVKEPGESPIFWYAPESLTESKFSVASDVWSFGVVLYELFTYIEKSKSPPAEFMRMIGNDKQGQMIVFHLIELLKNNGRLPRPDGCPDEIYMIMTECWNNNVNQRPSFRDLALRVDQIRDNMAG
Sequence of FGFR3 (P22607 whole entry, looked up): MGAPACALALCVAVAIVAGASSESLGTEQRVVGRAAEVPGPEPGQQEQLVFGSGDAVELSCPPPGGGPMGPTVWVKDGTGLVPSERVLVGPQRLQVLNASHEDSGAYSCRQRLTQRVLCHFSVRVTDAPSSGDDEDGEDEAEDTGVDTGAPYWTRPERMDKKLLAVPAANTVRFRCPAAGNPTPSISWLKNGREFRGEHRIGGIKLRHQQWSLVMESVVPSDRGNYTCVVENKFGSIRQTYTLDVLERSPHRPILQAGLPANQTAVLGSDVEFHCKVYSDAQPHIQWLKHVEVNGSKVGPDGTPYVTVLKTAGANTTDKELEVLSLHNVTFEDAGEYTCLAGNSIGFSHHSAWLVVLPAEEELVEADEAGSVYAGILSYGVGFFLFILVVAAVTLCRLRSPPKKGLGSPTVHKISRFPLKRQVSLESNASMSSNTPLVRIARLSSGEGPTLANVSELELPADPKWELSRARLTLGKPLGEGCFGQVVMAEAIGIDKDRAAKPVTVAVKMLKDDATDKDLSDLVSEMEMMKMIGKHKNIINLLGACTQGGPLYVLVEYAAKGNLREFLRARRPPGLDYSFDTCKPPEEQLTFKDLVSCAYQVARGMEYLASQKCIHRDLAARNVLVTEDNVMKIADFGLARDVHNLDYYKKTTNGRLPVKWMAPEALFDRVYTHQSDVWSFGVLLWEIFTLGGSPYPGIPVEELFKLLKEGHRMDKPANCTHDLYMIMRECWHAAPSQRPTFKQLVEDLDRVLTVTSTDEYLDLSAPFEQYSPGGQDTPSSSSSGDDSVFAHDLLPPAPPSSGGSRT
Sequence of FGFR1 (P11362 whole entry, looked up): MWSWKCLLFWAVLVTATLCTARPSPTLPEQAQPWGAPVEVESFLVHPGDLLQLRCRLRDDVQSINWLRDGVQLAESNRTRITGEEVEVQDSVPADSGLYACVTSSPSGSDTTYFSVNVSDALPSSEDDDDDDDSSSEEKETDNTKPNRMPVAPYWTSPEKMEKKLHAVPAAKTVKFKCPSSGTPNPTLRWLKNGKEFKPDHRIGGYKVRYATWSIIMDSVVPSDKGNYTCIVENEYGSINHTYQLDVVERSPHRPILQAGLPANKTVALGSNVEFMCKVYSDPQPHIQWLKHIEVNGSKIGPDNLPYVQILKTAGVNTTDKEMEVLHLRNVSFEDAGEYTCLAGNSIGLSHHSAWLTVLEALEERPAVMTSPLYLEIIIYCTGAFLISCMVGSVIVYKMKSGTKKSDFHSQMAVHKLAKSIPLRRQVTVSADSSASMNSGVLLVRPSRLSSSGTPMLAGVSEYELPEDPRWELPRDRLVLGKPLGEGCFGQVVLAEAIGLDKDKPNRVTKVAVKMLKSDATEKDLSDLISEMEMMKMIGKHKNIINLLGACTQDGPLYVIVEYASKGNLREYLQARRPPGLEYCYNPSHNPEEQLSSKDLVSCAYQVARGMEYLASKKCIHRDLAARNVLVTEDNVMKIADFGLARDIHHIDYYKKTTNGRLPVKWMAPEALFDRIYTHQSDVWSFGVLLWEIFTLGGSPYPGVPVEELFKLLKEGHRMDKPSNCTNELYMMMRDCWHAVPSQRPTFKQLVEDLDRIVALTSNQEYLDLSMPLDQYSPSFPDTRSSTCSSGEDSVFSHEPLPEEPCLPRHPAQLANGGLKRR
Sequence of EPHB1 (P54762 whole entry, looked up): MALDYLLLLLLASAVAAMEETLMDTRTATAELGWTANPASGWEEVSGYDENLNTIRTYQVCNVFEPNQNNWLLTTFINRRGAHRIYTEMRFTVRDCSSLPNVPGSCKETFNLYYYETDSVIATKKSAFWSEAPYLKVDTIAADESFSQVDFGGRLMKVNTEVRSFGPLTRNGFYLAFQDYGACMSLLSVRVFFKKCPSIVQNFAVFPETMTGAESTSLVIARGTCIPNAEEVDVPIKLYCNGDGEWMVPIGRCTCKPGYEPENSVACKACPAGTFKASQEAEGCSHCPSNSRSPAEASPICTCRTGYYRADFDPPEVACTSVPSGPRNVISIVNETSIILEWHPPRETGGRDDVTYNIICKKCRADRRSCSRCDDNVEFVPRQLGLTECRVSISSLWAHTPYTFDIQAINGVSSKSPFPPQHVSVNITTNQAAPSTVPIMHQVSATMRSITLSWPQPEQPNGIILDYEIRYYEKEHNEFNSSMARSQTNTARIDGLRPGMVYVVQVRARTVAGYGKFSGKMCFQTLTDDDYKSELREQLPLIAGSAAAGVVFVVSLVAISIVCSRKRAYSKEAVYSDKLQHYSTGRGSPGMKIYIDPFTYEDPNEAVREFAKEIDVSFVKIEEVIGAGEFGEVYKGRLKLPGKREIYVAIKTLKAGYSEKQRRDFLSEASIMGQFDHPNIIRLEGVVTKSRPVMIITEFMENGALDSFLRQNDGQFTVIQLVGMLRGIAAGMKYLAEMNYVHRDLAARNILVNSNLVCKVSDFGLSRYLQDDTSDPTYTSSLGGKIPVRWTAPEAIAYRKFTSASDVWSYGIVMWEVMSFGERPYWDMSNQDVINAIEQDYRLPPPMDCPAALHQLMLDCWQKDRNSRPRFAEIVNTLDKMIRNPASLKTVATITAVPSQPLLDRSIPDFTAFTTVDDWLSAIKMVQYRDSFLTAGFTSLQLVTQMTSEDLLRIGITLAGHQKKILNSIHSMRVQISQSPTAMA
Sequence of Grb2 SH2 (P62993 whole entry, looked up, the tested form may be a part): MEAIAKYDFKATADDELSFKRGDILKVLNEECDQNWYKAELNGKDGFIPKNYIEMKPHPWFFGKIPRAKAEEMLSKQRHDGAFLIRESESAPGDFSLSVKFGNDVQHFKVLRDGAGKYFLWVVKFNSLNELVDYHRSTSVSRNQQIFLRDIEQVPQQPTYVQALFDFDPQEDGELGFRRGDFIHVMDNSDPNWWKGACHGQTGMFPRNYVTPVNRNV

| Sequence | phosphorylation enrichment (c-Src) | phosphorylation enrichment (FGFR1) | phosphorylation enrichment (Fes) | phosphorylation enrichment (EPHB2) | phosphorylation enrichment (Fer (mouse)) | phosphorylation enrichment (Hck) | phosphorylation enrichment (c-Abl (mouse)) | phosphorylation enrichment (Fyn) | phosphorylation enrichment (EPHB1) | phosphorylation enrichment (FGFR3) | phosphorylation enrichment (Jak2) | phosphorylation enrichment (AncSZ) | phosphorylation enrichment (MERTK) | SH2 binding enrichment (c-Src SH2) | SH2 binding enrichment (SHP2-C SH2) | SH2 binding enrichment (Grb2 SH2) |
| --- | --- | --- | --- | --- | --- | --- | --- | --- | --- | --- | --- | --- | --- | --- | --- | --- |
| STAPSYGNPSS [CD19_Y378_G373S] | 0.381 | 0.361 | 0.505 | 0.357 | 0.32 | 0.34 | 0.482 | 0.383 | 0.328 | 0.358 | 0.503 | 0.545 | 0.402 | 0.458 | 0.694 | 0.744 |
| STFVPYEIKVQ [L1CAM_Y784] | 0.393 | 0.506 | 0.996 | 0.512 | 0.527 | 0.475 | 0.678 | 0.538 | 0.564 | 0.629 | 0.805 | 0.906 | 0.338 | 0.552 | 0.726 | 0.85 |
| STKELYEKFMI | 1.01 | 0.409 | 0.857 | 0.414 | 6.97 | 1.01 | 0.6 | 0.724 | 0.411 | 0.492 | 0.619 | 0.725 | 0.872 | 0.615 | 0.709 | 0.915 |
| SVQIVYKPVDL [MAPT_Y627] | 0.464 | 0.409 | 1.12 | 0.499 | 0.467 | 0.455 | 0.689 | 0.4 | 0.698 | 0.65 | 0.891 | 1.17 | 0.376 | 0.515 | 0.845 | 0.951 |
| SVTCTDSPALN [TP53_Y126_Y126D] | 0.427 | 0.491 | 1.13 | 0.564 | 0.567 | 0.474 | 0.847 | 0.447 | 0.6 | 0.805 | 0.958 | 0.975 | 0.351 | 0.419 | 0.662 | 0.667 |
| SVTCTYSPALY [TP53_Y126_N131Y] | 1.21 | 0.523 | 1.71 | 0.786 | 0.695 | 0.932 | 0.91 | 1.27 | 0.808 | 0.929 | 1.33 | 1.76 | 0.495 | 0.397 | 0.638 | 0.569 |
| SVTFTYSPALN [TP53_Y126_C124Y_YF] | 0.392 | 0.392 | 1.21 | 0.554 | 0.465 | 0.453 | 0.675 | 0.424 | 0.502 | 0.697 | 0.991 | 1.08 | 0.336 | 0.457 | 0.705 | 0.862 |
| SVTYTYSPALN [TP53_Y126_C124Y] | 0.998 | 1.24 | 1.16 | 0.87 | 0.621 | 1.17 | 1.78 | 0.967 | 0.95 | 1.34 | 0.997 | 1.5 | 2.79 | 0.453 | 0.717 | 0.76 |
| SVVVPYEAPEV [TP53_Y220_P222A] | 0.405 | 0.483 | 1.01 | 0.485 | 0.546 | 0.492 | 0.79 | 0.442 | 0.649 | 0.8 | 0.998 | 1.2 | 0.969 | 1.26 | 0.808 | 0.79 |
| SVVVPYEPREV [TP53_Y220_P223R] | 0.472 | 0.527 | 0.998 | 0.506 | 0.465 | 0.453 | 0.656 | 0.473 | 0.53 | 0.597 | 0.746 | 0.813 | 0.373 | 0.415 | 0.532 | 0.829 |
| SYPREYGSQEG [RBM10_Y48] | 0.413 | 0.47 | 0.826 | 0.487 | 0.414 | 0.477 | 0.586 | 0.424 | 0.515 | 0.519 | 0.673 | 0.756 | 0.409 | 0.546 | 0.76 | 0.852 |
| TAPYNYSYIFK [RAB14_Y8] | 0.772 | 1.74 | 0.735 | 3.26 | 1.59 | 1.14 | 0.717 | 0.354 | 9.69 | 1.21 | 0.561 | 1.03 | 6.78 | 13.7 | 1.79 | 1.4 |
| TDGNGYISFNE [LCP1_Y28] | 0.603 | 0.546 | 1.13 | 0.485 | 0.489 | 0.458 | 0.624 | 0.454 | 0.476 | 0.752 | 0.824 | 0.923 | 0.412 | 36 | 1.98 | 0.922 |
| TENAGYYFRIS | 0.41 | 0.575 | 1.75 | 0.576 | 0.453 | 0.475 | 0.763 | 0.477 | 0.588 | 0.816 | 1.71 | 1.44 | 0.433 | 0.736 | 0.801 | 0.574 |
| TETGRYEILTE | 0.44 | 0.543 | 0.765 | 0.466 | 0.354 | 0.517 | 0.389 | 0.387 | 0.532 | 0.427 | 0.658 | 0.742 | 0.421 | 17.2 | 0.426 | 0.772 |
| TFEPNYGTVKR [RAPGEF6_Y1447_Q1452R_YF] | 2.66 | 0.448 | 0.586 | 1.45 | 0.701 | 2.72 | 0.691 | 3.76 | 0.55 | 0.45 | 0.497 | 0.707 | 0.385 | 0.514 | 0.687 | 0.982 |
| TFGQVYKGPHV [TNIK_Y40_R43P_YF] | 0.433 | 0.47 | 0.751 | 0.454 | 0.466 | 0.448 | 0.537 | 0.493 | 0.403 | 0.426 | 0.608 | 0.59 | 0.381 | 0.413 | 0.531 | 0.69 |

| Sequence | phosphorylation enrichment (c-Src) | phosphorylation enrichment (FGFR1) | phosphorylation enrichment (Fes) | phosphorylation enrichment (EPHB2) | phosphorylation enrichment (Fer (mouse)) | phosphorylation enrichment (Hck) | phosphorylation enrichment (c-Abl (mouse)) | phosphorylation enrichment (Fyn) | phosphorylation enrichment (EPHB1) | phosphorylation enrichment (FGFR3) | phosphorylation enrichment (Jak2) | phosphorylation enrichment (AncSZ) | phosphorylation enrichment (MERTK) | SH2 binding enrichment (c-Src SH2) | SH2 binding enrichment (SHP2-C SH2) | SH2 binding enrichment (Grb2 SH2) |
| --- | --- | --- | --- | --- | --- | --- | --- | --- | --- | --- | --- | --- | --- | --- | --- | --- |
| TFGQVYKGRHV [TNIK_Y40_YF] | 0.437 | 0.347 | 0.545 | 0.367 | 0.33 | 0.406 | 0.555 | 0.39 | 0.401 | 0.368 | 0.598 | 0.524 | 0.34 | 0.752 | 1.24 | 0.893 |
| TGSFTCEAVEL [MTMR14_Y462_Y462C] | 0.483 | 0.529 | 1.24 | 0.659 | 0.619 | 0.573 | 0.77 | 0.65 | 0.661 | 0.811 | 0.892 | 1.19 | 0.419 | 0.576 | 0.676 | 0.888 |
| TKDTFYKQPMV [GBA_Y451_F456V] | 0.395 | 0.355 | 0.914 | 0.585 | 0.38 | 0.348 | 1.03 | 0.358 | 0.421 | 0.512 | 0.729 | 0.726 | 0.407 | 0.403 | 0.689 | 0.781 |
| TKQLTYEEQYL [PIK3C3_Y310_D314Y] | 0.732 | 0.434 | 1.18 | 0.603 | 0.965 | 0.524 | 0.825 | 0.45 | 0.551 | 0.766 | 1.37 | 0.95 | 0.593 | 0.538 | 0.747 | 0.894 |
| TLGPFYPSLLF [CRYAA_Y18_R21L] | 0.455 | 0.646 | 1.03 | 0.541 | 0.544 | 0.51 | 0.667 | 0.535 | 0.687 | 1.09 | 0.776 | 0.865 | 0.452 | 0.366 | 0.524 | 0.588 |
| TLKDVCDDGKF [RPS6KA3_Y483_Y483C_YF] | 0.433 | 0.583 | 1.1 | 0.545 | 0.523 | 0.427 | 0.885 | 0.446 | 0.555 | 0.601 | 0.873 | 1.03 | 0.498 | 0.66 | 0.809 | 1.16 |
| TLLAFYMGNFS [GLB1_Y552_P549L] | 0.98 | 0.435 | 1.49 | 0.661 | 0.559 | 0.62 | 1.06 | 0.408 | 0.943 | 0.839 | 1.59 | 1.18 | 0.625 | 0.464 | 0.805 | 0.835 |
| TLNHQYDYTFH [CSNK1A1_Y292_D297H] | 1.16 | 2.69 | 0.753 | 0.873 | 1.4 | 0.596 | 0.512 | 0.536 | 0.772 | 1.38 | 0.654 | 0.998 | 1.11 | 7.34 | 0.874 | 1.01 |
| TLPAFYMGNFS [GLB1_Y552] | 0.523 | 0.543 | 1.02 | 0.619 | 0.625 | 0.565 | 0.661 | 0.627 | 0.645 | 0.728 | 1.03 | 0.998 | 0.538 | 0.624 | 0.809 | 0.868 |
| TLQTMYGCDVG [HLA-B_Y123_S121T] | 0.68 | 0.556 | 1.15 | 0.589 | 0.838 | 0.579 | 0.849 | 0.554 | 0.909 | 0.772 | 0.979 | 1.13 | 0.647 | 0.545 | 0.729 | 0.854 |
| TNRSVYFKPSL [NUP153_Y382] | 0.511 | 0.448 | 0.595 | 0.369 | 0.433 | 0.551 | 0.556 | 0.421 | 0.453 | 0.447 | 0.66 | 0.667 | 0.455 | 0.588 | 2.21 | 0.948 |
| TNYCLYLRSLE [MTM1_Y71_R69C] | 0.887 | 0.814 | 1.46 | 1.52 | 0.614 | 0.668 | 0.883 | 0.545 | 1.93 | 1 | 1.29 | 1.67 | 1.19 | 0.696 | 2 | 1.18 |
| TQIGQYGNGLK [MORC2_Y100] | 0.272 | 0.434 | 0.432 | 0.258 | 0.387 | 0.421 | 0.339 | 0.352 | 0.29 | 0.345 | 0.358 | 0.475 | 0.316 | 0.509 | 0.661 | 0.991 |
| TRVMEYISCLD [CLTCL1_Y1043_R1046C] | 0.457 | 0.599 | 1.18 | 0.749 | 0.592 | 0.647 | 1.08 | 0.521 | 0.661 | 0.843 | 0.995 | 1.18 | 0.507 | 0.545 | 0.478 | 0.626 |
| TSPKSYPSQKH [CAP2_Y316] | 0.466 | 0.357 | 0.526 | 0.359 | 0.45 | 0.363 | 0.53 | 0.434 | 0.364 | 0.497 | 0.463 | 0.613 | 0.44 | 0.538 | 0.433 | 0.823 |
| TSQSQYSSFRE [CCDC170_Y323_F324S] | 1.88 | 0.63 | 0.626 | 0.77 | 0.523 | 1.14 | 0.607 | 1.37 | 0.51 | 0.531 | 0.687 | 0.604 | 0.57 | 0.663 | 0.779 | 1.1 |
